The target of this experiment is Full-length wild-type (WT) OaPAC, photoactivated adenylate cyclase from Oscillatoria acuminata (Oscillatoria acuminata). The experiment can be described thus: crystal structure; serial femtosecond crystallography (SFX) at the European XFEL, room temperature (294 K), microcrystals grown in 0.06 M divalents (MgCl2/CaCl2), 0.1 M Tris-Bicine pH 8.5, 30% PEG 550 MME/PEG 20 000; space group P2(1)2(1)2, one monomer in the asymmetric unit, dimer by crystal symmetry; 1.75 A.

Consider one substance from article PMC11533990.

By stoichiometry N is commonly meant a count of units in the complex or per binding partner. “Full-length wild-type (WT) OaPAC, photoactivated adenylate cyclase from Oscillatoria acuminata (enzyme)” registered a stoichiometry N of 2.
